In patent publication US20200085789A1, “USE OF A PROTEASOME INHIBITOR FOR THE TREATMENT OF CENTRAL NERVOUS SYSTEM (CNS) CANCERS” (Celgene International II Sàrl, priority 2017, published 2020):

Assay: Adverse events and dose-limiting toxicity (NCI-CTCAE v 4.03), MRZ ± BEV in recurrent grade IV malignant glioma patients
Type: in vivo, human
Excerpt: An adverse event (AE) is any noxious, unintended, or untoward medical occurrence that may appear or worsen in a subject during the course of a study. […] Any worsening (i.e., any clinically significant adverse change in the frequency or intensity of a pre-existing condition) should be considered an AE.
The severity/intensity of AEs will be graded based upon the subject's symptoms according to the current active minor version of the Common Terminology Criteria for Adverse Events ( ).

[1] = MRZ 0.8 mg/m^2 + BEV, Cohorts 3 & 4 (N = 27)
[2] = treated with MRZ 0.8 mg/m^2 + BEV (N = 27)

## bevacizumab [reference compound]
[1]
  Grade ≥3 Hypertension related to the labelled drug, patients: 5
  Grade ≥3 Hyponatremia related to the labelled drug, patients: 0
  Grade ≥3 Insomnia related to the labelled drug, patients: 0
  Grade ≥3 Intracranial Hemorrhage related to the labelled drug, patients: 1
  Grade ≥3 Optic Nerve Disorder related to the labelled drug, patients: 1
  Grade ≥3 Proteinuria related to the labelled drug, patients: 0
Pts on MRZ+BEV
  Anaemia: # Patients, AE related to the labelled drug(s): 0
  Anxiety: # Patients, AE related to the labelled drug(s): 0
  Aphasia: # Patients, AE related to the labelled drug(s): 0
  Appendicitis Perforated: # Patients, AE related to the labelled drug(s): 0
  Asthenia: # Patients, AE related to the labelled drug(s): 0
  Ataxia: # Patients, AE related to the labelled drug(s): 0
  Confusional State: # Patients, AE related to the labelled drug(s): 0
  Constipation: # Patients, AE related to the labelled drug(s): 0
  Convulsion: # Patients, AE related to the labelled drug(s): 0
  Delusion: # Patients, AE related to the labelled drug(s): 0
  Depressed Level of Consciousness: # Patients, AE related to the labelled drug(s): 0
  Diarrhoea: # Patients, AE related to the labelled drug(s): 0
  Dizziness: # Patients, AE related to the labelled drug(s): 0
  Dysarthria: # Patients, AE related to the labelled drug(s): 0
  Dysphagia: # Patients, AE related to the labelled drug(s): 0
  Dysphonia: # Patients, AE related to the labelled drug(s): 10
  Dyspnoea: # Patients, AE related to the labelled drug(s): 0
  Ear Infection: # Patients, AE related to the labelled drug(s): 0
  Epistaxis: # Patients, AE related to the labelled drug(s): 7
  Falls: # Patients, AE related to the labelled drug(s): 0
  Fatigue: # Patients, AE related to the labelled drug(s): 0
  Fracture of Femur: # Patients, AE related to the labelled drug(s): 0
  Hallucination: # Patients, AE related to the labelled drug(s): 0
  Headache: # Patients, AE related to the labelled drug(s): 1
  Hemiparesis: # Patients, AE related to the labelled drug(s): 0
  Hyperglycemia: # Patients, AE related to the labelled drug(s): 0
  Hypertension: # Patients, AE related to the labelled drug(s): 13
  Hypokalemia: # Patients, AE related to the labelled drug(s): 0
  Hyponatremia: # Patients, AE related to the labelled drug(s): 0
  Hypotension: # Patients, AE related to the labelled drug(s): 0
  Infusion Site Pain: # Patients, AE related to the labelled drug(s): 0
  Insomnia: # Patients, AE related to the labelled drug(s): 1
  Lymphocyte Count Decreased: # Patients, AE related to the labelled drug(s): 0
  Muscular Weakness: # Patients, AE related to the labelled drug(s): 0
  Nausea: # Patients, AE related to the labelled drug(s): 0
  Optic Nerve Disorder: # Patients, AE related to the labelled drug(s): 1
  Pyramidal Tract Syndrome: # Patients, AE related to the labelled drug(s): 0
  Tumor Metastasis: # Patients, AE related to the labelled drug(s): 0
  Vision Blurred: # Patients, AE related to the labelled drug(s): 0
  Vomiting: # Patients, AE related to the labelled drug(s): 0
[2]
  Anaemia related to the labelled drug(s): (0.0%)
  Anaemia related to the labelled drug(s), patients: 0
  Ataxia related to the labelled drug(s): (0.0%)
  Ataxia related to the labelled drug(s), patients: 0
  Confusional state related to the labelled drug(s): (3.7%)
  Confusional state related to the labelled drug(s), patients: 1
  Constipation related to the labelled drug(s): (3.7%)
  Constipation related to the labelled drug(s), patients: 1
  Diarrhoea related to the labelled drug(s): (3.7%)
  Diarrhoea related to the labelled drug(s), patients: 1
  Dizziness related to the labelled drug(s): (3.7%)
  Dizziness related to the labelled drug(s), patients: 1
  Dysphonia related to the labelled drug(s): (37.0%)
  Dysphonia related to the labelled drug(s), patients: 10
  Epistaxis related to the labelled drug(s): (25.9%)
  Epistaxis related to the labelled drug(s), patients: 7
  Fall related to the labelled drug(s): (0.0%)
  Fall related to the labelled drug(s), patients: 0
  Fatigue related to the labelled drug(s): (66.7%)
  Fatigue related to the labelled drug(s), patients: 18
  Hallucination related to the labelled drug(s): (0.0%)
  Hallucination related to the labelled drug(s), patients: 0
  Headache related to the labelled drug(s): (22.2%)
  Headache related to the labelled drug(s), patients: 6
  Hypertension related to the labelled drug(s): (40.7%)
  Infusion site pain related to the labelled drug(s): (3.7%)
  Infusion site pain related to the labelled drug(s), patients: 1
  Muscular weakness related to the labelled drug(s): (3.7%)
  Muscular weakness related to the labelled drug(s), patients: 1
  Nausea related to the labelled drug(s): (7.4%)
  Platelet count decreased related to the labelled drug(s): (11.1%)
  Platelet count decreased related to the labelled drug(s), patients: 3
  Stomatitis related to the labelled drug(s): (7.4%)
  Upper-airway cough syndrome related to the labelled drug(s): (18.5%)
  Upper-airway cough syndrome related to the labelled drug(s), patients: 5
  Vomiting related to the labelled drug(s): (14.8%)
